Laboratory results: the nanobody polyreactivity screen of Harvey et al. (2022)

Assay: yeast display, Sf9 membrane polyspecificity reagent, FACS + sequencing; frameworks hold sequencing errors
How it was run: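 Polyreactivity labels are assigned by the sorting gate from which each nanobody was recovered. The gates were low and high (top ~1%), set on anti-HA fluorescence for expression and streptavidin fluorescence for reagent binding. Before sorting, galactose-induced (36–48 hours) yeast display cells were stained for 1 hour at 4 °C with 10% biotinylated, detergent-solubilized Sf9 membrane reagent.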

Sequence | polyreactivity (PSR sort gate)
QVQLVESGGGLVQAGGSLRLSCAASGGTFPPNTMGWSRQAPGKEREFVAASTWRGSSTYYADSVKGRFTISRDKAKNTVYLQMNSLKPEDTAVYYCAARRAYERMGYWGQGTQVTVSS | high polyreactivity
QVQLVESGGGLVQAGGSLRLSCAASGGTFPQFAMGWYRQAPGKEREFVADITSRGGTTYYADSVKGRFTISRDNAKNTVYLQMNSLKPEDTAVYYCAADNPADWWGLDYWGQGTQVTVSS | low polyreactivity
QVQLVESGGGLVQAGGSLRLSCAASGGTFPQYAMGWYRQAPGKEREFVADITSRGGTTYYADSVKGRFTISRDNAKNTVYLQMNSLKPEDTAVYYCAAVNVAYSWYDTGYDYWGQGTQVTVSS | low polyreactivity
QVQLVESGGGLVQAGGSLRLSCAASGGTFPRNAMGWYRQAPGKERELVAAINQSGGRTYYADSVKGRFTISRDNAKNTVYLQLNSLKPEDTAVYYCAARVTYYRTYRGRQYGYWGQGTQVTVSS | high polyreactivity
QVQLVESGGGLVQAGGSLRLSCAASGGTFPYYAMGWYRQAPGKERELVAAITWDGGSTYYADSVKGRFTISRDNAKNTVYLQMNSLKPDATAVYYCNVRYYRYISRYDYWVQGTQVTVSS | high polyreactivity
QVQLVESGGGLVQAGGSLRLSCAASGGTFQQHAMGWYRKAPGTERELVAAISRSGGNTYYADSVKGRFTISRDNSKNTVYFQMNSLKPEDTAVYSCAVVSSSQYSRYTSQWKEYYWGKGTQVTVSS | low polyreactivity
QVQLVESGGGLVQAGGSLRLSCAASGGTFQRYVMGWYRQAPGKERELVAAISRSGSTYADSVKGRFTISRDNAKNTVYLQMNSLKPEDTAVYYCNVVRYYRYYLHGYDYWGQGTQVTVSS | high polyreactivity
QVQLVESGGGLVQAGGSLRLSCAASGGTFQYYTMGWYRQAPGKERELVAGISSGGSTYYADSVKGRFTISRDNAKNTVYLQMNSLKPEDTAVYYCNAVSRRKTYGYRIIKYDYWGQGTQVTVSS | high polyreactivity
QVQLVESGGGLVQAGGSLRLSCAASGGTFRPNAMGWYRQAPGKERELVAAITRSGGSTYYADSVKGRFTISRDNAKNTVYLQMNSLKPEDTAVYYCARDLRECGQGTQVTVSS | low polyreactivity
QVQLVESGGGLVQAGGSLRLSCAASGGTFRPNAMGWYRQAPGKERELVAAITRSGGSTYYADSVKGRFTISRDNAKNTVYLQMNSLKPVDTAVYYCARDLREWGQGTQVTVSS | low polyreactivity
QVQLVESGGGLVQAGGSLRLSCAASGGTFRRYAMGWSRQAPGKERELVAAITRSGTNTYYADSVKGRFTISRDNAKNTVYLQMNSLNPEDTAVYYCAADGFGKYWGQGTQVTVSS | high polyreactivity
QVQLVESGGGLVQAGGSLRLSCAASGGTFRYYAMGWYRQAPGKEREFVAAITSSGGSTYYADSVKGRFTISRDNAKKTVYLQMNRLKPEDTAGYYCATDNPFLWWFRPDQHGMGYWGQGTQVTVSS | low polyreactivity
QVQLVESGGGLVQAGGSLRLSCAASGGTFSKNAMGWYRQAPGKERELVADIRSGGSTYYADSVKGRFTISRDNAKNTVYLQMNSLKPEDTAVYYCNADGDVNEYDYWGQGTQVTVSS | low polyreactivity
QVQLVESGGGLVQAGGSLRLSCAASGGTFSKYAMGWYRQAPGKEREFVAAITVSGGGSYYADSVKGRFTISRDNAKNTVYLQMNSLKPEDTAVYYCAADLAWTASDYWGQGTQVTVSS | low polyreactivity
QVQLVESGGGLVQAGGSLRLSCAASGGTFSKYAMGWYRQAPGKERELVAAITYSSGSKYYADSVKGRFTISRDNAKNTVYLQMNSLKPEDTADYYCAARSGLYWWRFDYWGQGTQVTVSS | high polyreactivity
QVQLVESGGGLVQAGGSLRLSCAASGGTFSNYAMGWYIPAPGKERELVAAITSGGGSTYYADSVKGRFTISRDNAKNTVYLQMNSLKPEDTAVYYCAARRSSYGYWGQGTQVTVSS | high polyreactivity

Sequence | polyreactivity (PSR sort gate)
QVQLVESGGGLVQAGGSLRLSCAASGGTFSVYGMGWYRPAPGKERDLVAVINGTDGITYYADSVKARVTISRDNAKNTVYLQMNSLKPEDTAVYDCAKDSDFLAYHGLDHWGQGTLVTVSS | low polyreactivity
QVQLVESGGGLVQAGGSLRLSCAASGGTFSYNAMGWYRQAPGKERELVAAISSRGGSTYYSDSVKGRFTISRDNAKNTDYLQMNSLKPEDTAVYYCNAVRGVWYGSWGQGTQVTVSS | high polyreactivity
QVQLVESGGGLVQAGGSLRLSCAASGGTFSYYAMGCYRQAPGKERELVASISTDGGSTYYADSVKGRFTISRDNAKNTVYLQMNSLKPEDTAVYYCNARPRGYSDRYGYWGQGTQVTVSS | high polyreactivity
QVQLVESGGGLVQAGGSLRLSCAASGGTFSYYAMGWYRQAPGKERELFASISSGGSTYYADSVKGRFTISRDNAKNTVYLQMNSLKPEDTAVYYCNAEARSRRYRYDYWGQGTQVTVSS | high polyreactivity
QVQLVESGGGLVQAGGSLRLSCAASGGTFTHNAMGWYRQAPGKDWELVAAISRSGGSTSYADSVKGRFTISRYNAKNTVYLQMNSLKPEDTAVYYCADRISRQRSYSRDYWGQGNQVTVSS | high polyreactivity
QVQLVESGGGLVQAGGSLRLSCAASGGTFTWYAMGWYRQAPGKERELVAAISSDGSTYYADSVKGRFTISRDNAKNTVYLQMNSLKPEDTAVYYSAAYSSWGGFDYWGQGTQVTVSS | low polyreactivity
QVQLVESGGGLVQAGGSLRLSCAASGGTFVFYAMGWYRQAPGKERELVAAISSAGRTYYADSVKGRFTISRDNAKNTVYFQMNSLKPEDNAVYYCAAVSSQYDGRYYYWGQGTQVTVSS | high polyreactivity
QVQLVESGGGLVQAGGSLRLSCAASGGTFVPYAMGWYRQAPGKERELVAAITIGGSTSYADSVKGRFTISRDNAKNTVYLQMNSLKPEDTAVYYCNARSYPDYIYWSQRYDYDYWGQGTQVTVSS | low polyreactivity
QVQLVESGGGLVQAGGSLRLSCAASGGTFVRYAMGGYRPAPGKERELVAAISSRGGSTYYADSVKGRFTISRDNAKNTVFLQMNSLKPEDTAVYYCAARPGYYDFYWGQGTQVTVSS | high polyreactivity
QVQLVESGGGLVQAGGSLRLSCAASGGTFVYNAMGWNRQAPGKERELVAAISRSGSRTYYADSVKGRFTISRDNAKNTVYLQMNSLKPEDTAVYYCAARGYYPEYNHWGQGSQVTVSS | high polyreactivity
QVQLVESGGGLVQAGGSLRLSCAASGGTFWYYAMGWYRQAPGKERELVASISRGGSTNYADSVKGRFTISRDNAKNTVYLLMNSLKPEDTAVYYCNAGLRVGPRRYVDYEYDYWGQGTQVTVSS | low polyreactivity
QVQLVESGGGLVQAGGSLRLSCAASGGTFYHYAMGLYRQAPGKERALGAAIRSGARTNYADSVKGRFTISRDNAKNTVYLQMNSLYPEDTAAYSCAAARVRGYVRSGLDYWGQGTQVTVSS | high polyreactivity
QVQLVESGGGLVQAGGSLRLSCAASGGTFYIYVMGWYRQAPGKERELVAAITSGDSTNYADSVKGRFTISRDNAKNTVYLQMNSLKPEDTAVYYCATGYWELRYDYWGQGTQVTVSS | low polyreactivity
QVQLVESGGGLVQAGGSLRLSCAASGGTFYPYAMGWYRQAPGKVRELVAAITSCGSTNYADSVKGRFTISRDNAKKTVYLQMNSLKPEDTAVYYCAAKSSYIRPTNSDDYDYWGQGTQVTVSS | low polyreactivity
QVQLVESGGGLVQAGGSLRLSCAASGGTFYRNAMGWYRQAPGKERELVAAITKRGGSTYYADSVKGRFTISRDNAKNTVYIQINSLKPEDTAVYYCAKDAAPIPGNDSDYWGQGTQVTVSS | high polyreactivity
QVQLVESGGGLVQAGGSLRLSCAASGGTFYRSAMGWYRQAPGKERELVAAISTGSSTYYADSVKGRFTISRDNAKNTVYLQINSQKPEDTAVNYCAARYWERYRSFNYWGQGTQVTVSS | high polyreactivity
